What follows are sequences tested on Escherichia coli TOP10 (assay: shrunken log2 fold change of peptide-encoding DNA abundance (4.5 h post-induction vs induction); higher = less antimicrobial activity (less host growth inhibition)). Conditions: time post-induction: 4.5 h; library: site-saturation at positions 5, 18, 19, 20.
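Note: peptides expressed intracellularly from a pBAD plasmid library in pooled LB shake-flask culture, induced with 0.3% L-arabinose, DNA abundance read by NGS, three biological replicates, DESeq2 with apeglm shrinkage.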

Sequence | shrunken log2 fold change
RRIRGRPPRLPRPRPRPHARPRP | 0.629
RRIRRRPPRLPRPRPRPGVLPRP | 0.465
RRIRLRPPRLPRPRPRPISYPRP | -0.334
RRIRFRPPRLPRPRPRPQESPRP | 0.124
RRIRKRPPRLPRPRPRPPEQPRP | 0.0815
RRIRSRPPRLPRPRPRPEGMPRP | 0.392
RRIRARPPRLPRPRPRPVLGPRP | 0.419
RRIRDRPPRLPRPRPRPMSFPRP | -0.00238
RRIRLRPPRLPRPRPRPQTLPRP | -0.0114
RRIRDRPPRLPRPRPRPSGFPRP | 0.029
RRIRRRPPRLPRPRPRPPRTPRP | 1.16
RRIRKRPPRLPRPRPRPDYLPRP | 0.111
RRIRKRPPRLPRPRPRPYSIPRP | -0.182
RRIRLRPPRLPRPRPRPVPNPRP | 0.0119
RRIRVRPPRLPRPRPRPTAMPRP | 0.0686
RRIRGRPPRLPRPRPRPSEQPRP | 0.301
RRIRRRPPRLPRPRPRPYPIPRP | -0.269
RRIRKRPPRLPRPRPRPNQVPRP | -0.0821
RRIRSRPPRLPRPRPRPFMYPRP | -0.513
RRIRARPPRLPRPRPRPDMNPRP | 0.31
RRIRIRPPRLPRPRPRPVFIPRP | -0.472
RRIRSRPPRLPRPRPRPCMPPRP | -0.375
RRIRERPPRLPRPRPRPPIKPRP | -0.414
RRIRCRPPRLPRPRPRPEITPRP | 0.0771
RRIRSRPPRLPRPRPRPGGEPRP | 0.585

Sequence | shrunken log2 fold change
RRIRARPPRLPRPRPRPNHPPRP | -0.0147
RRIRDRPPRLPRPRPRPDKTPRP | 0.0138
RRIRDRPPRLPRPRPRPKQTPRP | 0.0941
RRIRIRPPRLPRPRPRPKKSPRP | -0.202
RRIRWRPPRLPRPRPRPPPVPRP | 0.931
RRIRYRPPRLPRPRPRPLHYPRP | -1.53
RRIRKRPPRLPRPRPRPCVVPRP | 0.0713
RRIRRRPPRLPRPRPRPALTPRP | 0.258
RRIRRRPPRLPRPRPRPWKGPRP | -0.209
RRIRRRPPRLPRPRPRPVKAPRP | 0.148
RRIRSRPPRLPRPRPRPMKEPRP | -0.338
RRIRRRPPRLPRPRPRPNYLPRP | 0.305
RRIRWRPPRLPRPRPRPMGVPRP | -0.00743
RRIRLRPPRLPRPRPRPARNPRP | 0.483
RRIRRRPPRLPRPRPRPAGYPRP | -0.269
RRIRTRPPRLPRPRPRPNPIPRP | -0.157
RRIRTRPPRLPRPRPRPTQVPRP | 0.131
RRIRWRPPRLPRPRPRPGWCPRP | 0.362
RRIRKRPPRLPRPRPRPPLCPRP | 0.668
RRIRSRPPRLPRPRPRPMYRPRP | -0.172
RRIRDRPPRLPRPRPRPIMAPRP | -0.00298
RRIRQRPPRLPRPRPRPIEGPRP | 0.0763
RRIRHRPPRLPRPRPRPKLRPRP | -0.382
RRIRTRPPRLPRPRPRPIEDPRP | 0.0177
RRIRDRPPRLPRPRPRPWITPRP | -0.123

Sequence | shrunken log2 fold change
RRIRFRPPRLPRPRPRPFNCPRP | -0.113
RRIRVRPPRLPRPRPRPLVWPRP | 0.115
RRIRSRPPRLPRPRPRPPPVPRP | 0.745
RRIRQRPPRLPRPRPRPQEKPRP | 0.0313
RRIRDRPPRLPRPRPRPEREPRP | -0.0248
RRIRSRPPRLPRPRPRPIDSPRP | -0.0241
RRIRTRPPRLPRPRPRPGSYPRP | -0.0475
RRIRFRPPRLPRPRPRPLRMPRP | 0.0542
RRIRNRPPRLPRPRPRPQPQPRP | -0.0877
RRIRKRPPRLPRPRPRPNTLPRP | -0.0816
RRIRPRPPRLPRPRPRPTGQPRP | 0.152
RRIRDRPPRLPRPRPRPEDLPRP | 0.902
RRIRLRPPRLPRPRPRPPSCPRP | 0.341
RRIRMRPPRLPRPRPRPRCGPRP | 0.733
RRIRARPPRLPRPRPRPTVRPRP | 0.302
RRIRDRPPRLPRPRPRPWPCPRP | 0.462
RRIRLRPPRLPRPRPRPKSVPRP | 0.0155
RRIRARPPRLPRPRPRPWIDPRP | -0.0113
RRIRKRPPRLPRPRPRPRCWPRP | 0.931
RRIRGRPPRLPRPRPRPRWDPRP | 0.696
RRIRCRPPRLPRPRPRPTDPPRP | 0.102
RRIRYRPPRLPRPRPRPWSYPRP | -0.23
RRIRPRPPRLPRPRPRPSCWPRP | 0.36
RRIRTRPPRLPRPRPRPNIRPRP | -0.0979
RRIRSRPPRLPRPRPRPMPVPRP | 0.0216

Sequence | shrunken log2 fold change
RRIRLRPPRLPRPRPRPDEYPRP | -0.000921
RRIRWRPPRLPRPRPRPHADPRP | 0.708
RRIRRRPPRLPRPRPRPHTNPRP | -0.547
RRIRFRPPRLPRPRPRPWNYPRP | -0.605
RRIRYRPPRLPRPRPRPWCWPRP | -0.153
RRIRPRPPRLPRPRPRPDSCPRP | 0.0412
RRIRDRPPRLPRPRPRPWYAPRP | 0.00564
RRIRWRPPRLPRPRPRPKSRPRP | -0.0202
RRIRERPPRLPRPRPRPTIVPRP | 0.03
RRIRFRPPRLPRPRPRPLSYPRP | -0.0166
RRIRRRPPRLPRPRPRPKCFPRP | 0.445
RRIRGRPPRLPRPRPRPKINPRP | 0.426
RRIRFRPPRLPRPRPRPSCCPRP | -0.443
RRIRKRPPRLPRPRPRPDGWPRP | 0.152
RRIRQRPPRLPRPRPRPSRWPRP | -0.0126
RRIRSRPPRLPRPRPRPKHEPRP | 0.076
RRIRLRPPRLPRPRPRPMGMPRP | 0.0771
RRIRTRPPRLPRPRPRPQKTPRP | -0.0581
RRIRKRPPRLPRPRPRPEYDPRP | 1.13
RRIRDRPPRLPRPRPRPQNRPRP | -0.28
RRIRVRPPRLPRPRPRPFIAPRP | -0.448
RRIRTRPPRLPRPRPRPSYTPRP | -0.761
RRIRDRPPRLPRPRPRPHVHPRP | -0.134
RRIRIRPPRLPRPRPRPQDCPRP | 0.00138
RRIRNRPPRLPRPRPRPLMNPRP | -0.853

Sequence | shrunken log2 fold change
RRIRFRPPRLPRPRPRPLRQPRP | 0.0138
RRIRGRPPRLPRPRPRPHHYPRP | -0.524
RRIRWRPPRLPRPRPRPTNYPRP | -0.347
RRIRNRPPRLPRPRPRPTMVPRP | -0.0433
RRIRARPPRLPRPRPRPKLFPRP | 0.233
RRIRDRPPRLPRPRPRPRPAPRP | 0.966
RRIRNRPPRLPRPRPRPIGCPRP | 0.0526
RRIRGRPPRLPRPRPRPFEYPRP | 0.0664
RRIRCRPPRLPRPRPRPNHHPRP | -0.604
RRIRNRPPRLPRPRPRPLQNPRP | 0.176
RRIRARPPRLPRPRPRPEYEPRP | 0.262
RRIRDRPPRLPRPRPRPWYDPRP | -0.6
RRIRVRPPRLPRPRPRPTWFPRP | 0.177
RRIRARPPRLPRPRPRPLHFPRP | 0.211
RRIRSRPPRLPRPRPRPSYKPRP | -0.659
RRIRLRPPRLPRPRPRPFGCPRP | -0.138
RRIRIRPPRLPRPRPRPIELPRP | 0.0658
RRIRMRPPRLPRPRPRPFALPRP | 0.0192
RRIRHRPPRLPRPRPRPVVKPRP | -0.132
RRIRSRPPRLPRPRPRPSMTPRP | -0.356
RRIRCRPPRLPRPRPRPNDVPRP | -0.215
RRIRLRPPRLPRPRPRPCAWPRP | -0.005
RRIRWRPPRLPRPRPRPNNSPRP | -0.723
RRIRGRPPRLPRPRPRPMHTPRP | 1.25
RRIRCRPPRLPRPRPRPMHLPRP | 0.0527

Sequence | shrunken log2 fold change
RRIRQRPPRLPRPRPRPSLTPRP | 0.133
RRIRLRPPRLPRPRPRPNPKPRP | -0.0548
RRIRERPPRLPRPRPRPKMCPRP | -0.149
RRIRGRPPRLPRPRPRPVDSPRP | 0.0597
RRIRWRPPRLPRPRPRPTDKPRP | -0.0481
RRIRTRPPRLPRPRPRPDMLPRP | 0.035
RRIRDRPPRLPRPRPRPEEKPRP | 0.766
RRIRPRPPRLPRPRPRPHAVPRP | 0.0549
RRIRARPPRLPRPRPRPFAMPRP | 0.236
RRIRPRPPRLPRPRPRPWKEPRP | -0.164
RRIRTRPPRLPRPRPRPPYGPRP | -0.195
RRIRCRPPRLPRPRPRPIYFPRP | -0.131
RRIRCRPPRLPRPRPRPLGTPRP | -0.583
RRIRERPPRLPRPRPRPEYPPRP | -0.162
RRIRGRPPRLPRPRPRPRICPRP | 0.335
RRIRDRPPRLPRPRPRPTKGPRP | 0.0341
RRIRRRPPRLPRPRPRPNPPPRP | 0.451
RRIRFRPPRLPRPRPRPQSEPRP | 0.00741
RRIRYRPPRLPRPRPRPASAPRP | 0.0949
RRIRCRPPRLPRPRPRPMCEPRP | -0.0476
RRIRQRPPRLPRPRPRPYRLPRP | -0.19
RRIRKRPPRLPRPRPRPENFPRP | -0.00264
RRIRSRPPRLPRPRPRPAWKPRP | 0.186
RRIRKRPPRLPRPRPRPPSCPRP | 1.71
RRIRLRPPRLPRPRPRPKFNPRP | -0.437

From the supplement of paper PMC9112550, “Optimization of the antimicrobial peptide Bac7 by deep mutational scanning” (BMC Biology, 2022)
